Our source for the BRET50 values is publication PMC10518940.

The target in this assay is T1, HA-CXCR4-Rluc8 (human), P61073.
T1 chain: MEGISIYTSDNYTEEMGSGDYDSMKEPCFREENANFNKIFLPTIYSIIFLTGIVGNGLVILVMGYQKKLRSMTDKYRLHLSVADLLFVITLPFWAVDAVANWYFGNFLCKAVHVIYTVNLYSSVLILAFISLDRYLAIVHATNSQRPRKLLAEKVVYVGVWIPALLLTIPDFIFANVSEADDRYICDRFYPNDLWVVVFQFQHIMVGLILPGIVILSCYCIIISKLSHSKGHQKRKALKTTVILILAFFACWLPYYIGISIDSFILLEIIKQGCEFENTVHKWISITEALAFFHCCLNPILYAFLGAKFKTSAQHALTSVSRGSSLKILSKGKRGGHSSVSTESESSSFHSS
The assay can be described thus: FRET or BRET; BRET2 saturation in HEK293A cells: fixed amount of GPCR-Rluc8 plasmid, increasing amounts of GPCR-GFP2 plasmid (0 to 390 ng); coelenterazine 400a 5 μM; BRET50 from the net BRET ratio. The conditions noted are these: remark: other sources report otherwise. (Bioluminescence resonance energy transfer reports proximity on the nanometre scale.)

B1: CXCR4-GFP2, P61073 1-352 (receptor)
chain: T1 chain
For the molecule B1, the BRET50 amounted to 0.244.
